# Tests used:
# [1] = target: HLA-A201/LMP-1 monomer (recombinant, membrane free, refolded complex of HLA-A201 heavy chain, beta-2 microglobulin and LMP-1 peptide …) (human; Epstein-Barr virus); experiment: Kaff from OD50 at two antigen concentrations (Beatty et al.), [Ag] 120 ng/ml
# [2] = target: HLA-A201/LMP-1 monomer (recombinant, membrane free, refolded complex of HLA-A201 heavy chain, beta-2 microglobulin and LMP-1 peptide …) (human; Epstein-Barr virus); experiment: dose response curve, antigen at 60 ng/ml (method of Beatty et al.)
# [3] = target: HLA-A201/LMP-1 monomer (recombinant, membrane free, refolded complex of HLA-A201 heavy chain, beta-2 microglobulin and LMP-1 peptide …) (human; Epstein-Barr virus); experiment: Kaff from OD50 at two antigen concentrations (Beatty et al.), [Ag] 60 ng/ml
# [4] = target: HLA-A201/LMP-1 monomer (recombinant, membrane free, refolded complex of HLA-A201 heavy chain, beta-2 microglobulin and LMP-1 peptide …) (human; Epstein-Barr virus); experiment: Kaff from OD50 at two antigen concentrations (Beatty et al.), [Ag] 15 ng/ml
# [5] = target: HLA-A201/LMP-1 monomer (recombinant, membrane free, refolded complex of HLA-A201 heavy chain, beta-2 microglobulin and LMP-1 peptide …) (human; Epstein-Barr virus); experiment: dose response curve, antigen at 120 ng/ml (method of Beatty et al.)
# [6] = target: HLA-A201/LMP-1 monomer (recombinant, membrane free, refolded complex of HLA-A201 heavy chain, beta-2 microglobulin and LMP-1 peptide …) (human; Epstein-Barr virus); experiment: average Kaff (Beatty et al. method)
# [7] = target: HLA-A201/LMP-1 monomer (recombinant, membrane free, refolded complex of HLA-A201 heavy chain, beta-2 microglobulin and LMP-1 peptide …) (human; Epstein-Barr virus); experiment: dose response curve, antigen at 30 ng/ml (method of Beatty et al.)
# [8] = target: HLA-A201/LMP-1 monomer (recombinant, membrane free, refolded complex of HLA-A201 heavy chain, beta-2 microglobulin and LMP-1 peptide …) (human; Epstein-Barr virus); experiment: Kaff from OD50 at two antigen concentrations (Beatty et al.), [Ag] 30 ng/ml
# [9] = target: HLA-A201/LMP-1 monomer (recombinant, membrane free, refolded complex of HLA-A201 heavy chain, beta-2 microglobulin and LMP-1 peptide …) (human; Epstein-Barr virus); experiment: dose response curve, antigen at 15 ng/ml (method of Beatty et al.)
substance,measurement,setting,value
"BB7.2 (pan anti-HLA-A2), commercially available anti-HLA-A2 antibody",Ka,[1],5.7e+08 M⁻¹
same,[mAb] at OD50,[2],54.1 ng/mL
same,Ka,[3],1.01e+09 M⁻¹
same,Ka,[4],4.31e+08 M⁻¹
same,[mAb] at OD50,[5],26.1 ng/mL
same,Ka,[6],7.17e+08 M⁻¹
same,[mAb] at OD50,[7],68.1 ng/mL
same,Ka,[8],8.71e+08 M⁻¹
same,[mAb] at OD50,[9],121 ng/mL

# — patent US20120294874A1
